This is an account of results in article PMC12075709, “Acute regulation of murine adipose tissue lipolysis and insulin resistance by the TGFβ superfamily protein GDF3” (Nature Communications, 2025).

The target of experiment [1] is T1, SB-431542-resistant rat ALK5 S278T (Alk5-ST) (rat, UniProt P80204 30-501, S278T).
T1 sequence (looked up): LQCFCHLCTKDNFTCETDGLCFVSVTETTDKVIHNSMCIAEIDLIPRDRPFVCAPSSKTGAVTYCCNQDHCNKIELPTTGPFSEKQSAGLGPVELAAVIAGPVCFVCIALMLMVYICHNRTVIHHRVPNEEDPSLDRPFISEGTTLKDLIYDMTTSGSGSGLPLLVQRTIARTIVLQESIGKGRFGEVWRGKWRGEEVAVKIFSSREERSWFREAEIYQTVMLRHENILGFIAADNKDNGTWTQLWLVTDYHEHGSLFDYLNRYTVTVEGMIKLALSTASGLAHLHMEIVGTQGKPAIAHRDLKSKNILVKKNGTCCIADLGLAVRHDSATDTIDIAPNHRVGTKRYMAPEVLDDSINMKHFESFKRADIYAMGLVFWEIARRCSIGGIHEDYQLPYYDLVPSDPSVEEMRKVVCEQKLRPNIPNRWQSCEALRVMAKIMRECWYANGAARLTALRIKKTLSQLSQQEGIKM
Kind of experiment: cell-based or functional assay.

The target in experiment [2] is T2, Fc-chimera of the human type II BMP receptor (rhBMPR2-Fc) (human, UniProt Q13873 27-150).
T2 construct: type II BMP receptor BMPR2, human, part fused to Fc; Probably the extracellular domain fused to human IgG1 Fc (surmised); also called rhBMPRII-Fc; BMPRII
T2 sequence (looked up): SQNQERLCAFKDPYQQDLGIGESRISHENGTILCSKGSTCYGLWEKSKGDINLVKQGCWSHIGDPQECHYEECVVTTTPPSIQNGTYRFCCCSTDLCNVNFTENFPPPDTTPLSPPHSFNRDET
Kind of experiment: BLI; Gator Plus; capturing receptor (rhBMPR2-Fc) at 10 µg/mL on anti-human IgG Fc probes; GDF3 in solution (rhGDF3 50 nM; rmGDF3 25-100 nM); PBS, 1 mg/mL BSA, 0.1% Tween20, pH 7.4, 25 °C. Conditions: both partners purified. For orientation: In BLI a coated tip is dipped into the sample, and binding shifts an interference pattern.

The target of experiment [3] is T2, Fc-chimera of the human type II BMP …. Put plainly: ITC; Nano ITC Standard Volume; 250 ng/mL of rhBMPR2-Fc, rhBMP2, rmBMP4 or rhBMP9 titrated into 250 ng/mL of rmGDF3; 10 injections of 8 µL at 350 s intervals, 300 rpm. Conditions: both partners purified. A general note: In ITC the heat of successive injections is recorded.
The target in experiment [4] is T3, chimeric recombinant human ACVR2B-Fc (human, UniProt Q13705 19-137).
T3 construct: activin receptor type 2B (ACVR2B), human, part fused to Fc; Probably the extracellular domain fused to Fc (surmised); also called rhACVR2B-Fc; rhACVR2B
T3 sequence (looked up): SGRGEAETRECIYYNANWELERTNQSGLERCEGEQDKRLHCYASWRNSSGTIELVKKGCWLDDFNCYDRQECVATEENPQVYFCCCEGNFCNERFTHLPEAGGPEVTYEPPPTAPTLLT
Put plainly: SPR; Biacore T200; receptor-Fc captured on a Protein A sensor chip (~70 RU); rhGDF3 flowed over, two-fold dilutions 12.5 nM-0.391 nM; 20 mM HEPES pH 7.4, 350 mM NaCl, 3.4 mM EDTA, 0.05% P-20, 0.5 mg/ml BSA, 25 °C; 1:1 fit model with mass transport limitations. Conditions: both partners purified. (In general: SPR reads the build-up and loss of mass on a sensor chip optically.)

Experiment [5] addresses T2, Fc-chimera of the human type II BMP …. The experiment is described as above. Conditions: both partners purified.
Experiment [6] deals with T4, chimeric recombinant human ACVR2A-Fc (human, UniProt P27037 20-135).
T4 construct: activin receptor type 2A (ACVR2A), human, part fused to Fc; Probably the extracellular domain fused to Fc (surmised); also called rhACVR2A-Fc; rhACVR2A
T4 sequence (P27037 20-135, change not shown): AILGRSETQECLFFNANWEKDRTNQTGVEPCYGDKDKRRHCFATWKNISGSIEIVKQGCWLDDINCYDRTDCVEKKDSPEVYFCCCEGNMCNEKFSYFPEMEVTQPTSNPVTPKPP
The description is as above. Conditions: both partners purified.

B1: recombinant mouse GDF3 (Growth Differentiation Factor 3) (ligand, UniProt Q07104 253-366, looked up)
chain: AAISVPKGFCRNFCHRHQLFINFQDLGWHKWVIAPKGFMANYCHGECPFSMTTYLNSSNYAFMQALMHMADPKVPKAVCVPTKLSPISMLYQDSDKNVILRHYEDMVVDECGCG
notes: Growth Differentiation Factor 3, mouse, recombinant; also called rmGDF3; mouse rGDF3; source: CHO cell-derived
What is called Kd is the equilibrium constant for the complex coming apart. Usually koff stands for the rate constant with which the complex falls apart. What is called kon is a measure of how fast the partners come together. Consider B1, for which the “SBE-luciferase (CAGA12) reporter activity in HEK-293 cells expressing Alk5-ST, rmGDF3 0, 250, 500 or 1000 ng/mL with SB-431542” value in experiment [1] amounted to 70 fold. Further, in experiment [2], the Kd worked out at 13.1 nM, the koff is 0.00483 s⁻¹ and the kon is 370000 M⁻¹ s⁻¹. The same molecule showed a Kd in experiment [3] of 811 nM.

B2: recombinant human GDF3 (Growth Differentiation Factor 3) (ligand, UniProt Q9NR23 251-364, looked up)
chain: AAIPVPKLSCKNLCHRHQLFINFRDLGWHKWIIAPKGFMANYCHGECPFSLTISLNSSNYAFMQALMHAVDPEIPQAVCIPTKLSPISMLYQDNNDNVILRHYEDMVVDECGCG
notes: Growth Differentiation Factor 3, human, recombinant; also called rhGDF3; human rGDF3
Turning to B2, in experiment [4], the Kd worked out at 0.332 nM, the koff came to 0.00038 s⁻¹ and the kon came to 2.12e+06 M⁻¹ s⁻¹. In experiment [5], this molecule returned a Kd of 0.601 nM, a koff of 0.00149 s⁻¹ and a kon of 2.19e+06 M⁻¹ s⁻¹. For the same molecule, in experiment [6], the Kd stood at 1.26 nM, the koff turned out to be 0.000405 s⁻¹ and the on-rate (kon) was 1.21e+06 M⁻¹ s⁻¹.
